The values below come from patent publication US7658917 (PRAECIS PHARMACEUTICALS, dated 2010).

The labels stand for the following.
B1: CA-KTVFF-oh (peptide)
peptide: Cholyl-KTVFF-OH
SMILES: CC(C)[C@H](NC(=O)[C@@H](NC(=O)[C@H](CCCCN)NC(=O)CC[C@@H](C)[C@H]1CC[C@H]2[C@@H]3[C@H](O)C[C@@H]4C[C@H](O)CC[C@]4(C)[C@H]3C[C@H](O)[C@]12C)[C@@H](C)O)C(=O)N[C@@H](Cc1ccccc1)C(=O)N[C@@H](Cc1ccccc1)C(=O)O
B2: h-LVFFA-oh (peptide)
peptide: H-LVFFA-OH
B3: h-DDIIL-(Adp)-VFF-oh (peptide)
peptide: H-DDIIL[Adp]VFF-OH
SMILES: CC[C@H](C)[C@H](NC(=O)[C@H](CC(=O)O)NC(=O)[C@@H](N)CC(=O)O)C(=O)N[C@H](C(=O)N[C@@H](CC(C)C)C(=O)NCCc1cccc2c1oc1c(CCC(=O)N[C@H](C(=O)N[C@@H](Cc3ccccc3)C(=O)N[C@@H](Cc3ccccc3)C(=O)O)C(C)C)cccc12)[C@@H](C)CC
B4: CA-LVFF-oh (peptide)
peptide: Cholyl-LVFF-OH
B5: CA-LVAFA-oh (peptide)
peptide: Cholyl-LVAFA-OH
SMILES: CC(C)C[C@H](NC(=O)CC[C@@H](C)[C@H]1CC[C@H]2[C@@H]3[C@H](O)C[C@@H]4C[C@H](O)CC[C@]4(C)[C@H]3C[C@H](O)[C@]12C)C(=O)N[C@H](C(=O)N[C@@H](C)C(=O)N[C@@H](Cc1ccccc1)C(=O)N[C@@H](C)C(=O)O)C(C)C
B6: CA-FKFVL-oh (peptide)
peptide: Cholyl-FKFVL-OH
SMILES: CC(C)C[C@H](NC(=O)[C@@H](NC(=O)[C@H](Cc1ccccc1)NC(=O)[C@H](CCCCN)NC(=O)[C@H](Cc1ccccc1)NC(=O)CC[C@@H](C)[C@H]1CC[C@H]2[C@@H]3[C@H](O)C[C@@H]4C[C@H](O)CC[C@]4(C)[C@H]3C[C@H](O)[C@]12C)C(C)C)C(=O)O
B7: CA-HQKLVFF-nh2 (peptide)
peptide: Cholyl-HQKLVFF-NH2
B8: CA-AVFFA-oh (peptide)
peptide: Cholyl-AVFFA-OH
SMILES: CC(C)[C@H](NC(=O)[C@H](C)NC(=O)CC[C@@H](C)[C@H]1CC[C@H]2[C@@H]3[C@H](O)C[C@@H]4C[C@H](O)CC[C@]4(C)[C@H]3C[C@H](O)[C@]12C)C(=O)N[C@@H](Cc1ccccc1)C(=O)N[C@@H](Cc1ccccc1)C(=O)N[C@@H](C)C(=O)O
B9: NANA-HQKLVFF-nh2 (peptide)
peptide: {NANA}-HQKLVFF-NH2
B10: CA-LAFFA-oh (peptide)
peptide: Cholyl-LAFFA-OH
SMILES: CC(C)C[C@H](NC(=O)CC[C@@H](C)[C@H]1CC[C@H]2[C@@H]3[C@H](O)C[C@@H]4C[C@H](O)CC[C@]4(C)[C@H]3C[C@H](O)[C@]12C)C(=O)N[C@@H](C)C(=O)N[C@@H](Cc1ccccc1)C(=O)N[C@@H](Cc1ccccc1)C(=O)N[C@@H](C)C(=O)O
B11: NANA-KLVFF-oh (peptide)
peptide: {NANA}-KLVFF-OH
B12: CA-LVFFAE-oh (peptide)
peptide: Cholyl-LVFFAE-OH
SMILES: CC(C)C[C@H](NC(=O)CC[C@@H](C)[C@H]1CC[C@H]2[C@@H]3[C@H](O)C[C@@H]4C[C@H](O)CC[C@]4(C)[C@H]3C[C@H](O)[C@]12C)C(=O)N[C@H](C(=O)N[C@@H](Cc1ccccc1)C(=O)N[C@@H](Cc1ccccc1)C(=O)N[C@@H](C)C(=O)N[C@@H](CCC(=O)O)C(=O)O)C(C)C
B13: CA-KLVFF(βA)-oh (peptide)
peptide: Cholyl-KLVFF[βAla]-OH
SMILES: CC(C)C[C@H](NC(=O)[C@H](CCCCN)NC(=O)CC[C@@H](C)[C@H]1CC[C@H]2[C@@H]3[C@H](O)C[C@@H]4C[C@H](O)CC[C@]4(C)[C@H]3C[C@H](O)[C@]12C)C(=O)N[C@H](C(=O)N[C@@H](Cc1ccccc1)C(=O)N[C@@H](Cc1ccccc1)C(=O)NCCC(=O)O)C(C)C
B14: CA-VFFA-oh (peptide)
peptide: Cholyl-VFFA-OH
SMILES: CC(C)[C@H](NC(=O)CC[C@@H](C)[C@H]1CC[C@H]2[C@@H]3[C@H](O)C[C@@H]4C[C@H](O)CC[C@]4(C)[C@H]3C[C@H](O)[C@]12C)C(=O)N[C@@H](Cc1ccccc1)C(=O)N[C@@H](Cc1ccccc1)C(=O)N[C@@H](C)C(=O)O
B15: CA-LVFFA-nh2 (peptide)
peptide: Cholyl-LVFFA-NH2
B16: h-KLVFF-nh2 (peptide)
peptide: H-KLVFF-NH2

Numbered stars: 1 amine (or outer) side, 2 acyl side, 3 side chain; on linkers, the order of the positions; unused ones are H or OH. Square brackets hold non-standard residues; d marks the D form. * marks the point of attachment. Cholyl = C[C@H](CCC(=O)*)[C@H]1CC[C@H]2[C@@H]3[C@H](O)C[C@@H]4C[C@H](O)CC[C@]4(C)[C@H]3C[C@H](O)[C@]12C; Adp = aminoethyldibenzofuranylpropanoic acid, O=C(CCc1cccc2c1oc1c(CCN[*:1])cccc12)[*:2]; NANA = N-acetyl neuraminyl; βAla = NCCC(=O)O

The target in this experiment is natural β-amyloid peptide β-AP1-40 (human). In words: cell-based or functional assay.
natural β-amyloid peptide β-AP1-40 (human), sequence (peptide, as listed by the source): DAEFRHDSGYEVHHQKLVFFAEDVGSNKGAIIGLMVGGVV
B1: the “% Iext'n; seeded extension assay; 25 mole %” value (“% Iext'n” below) came to 21%, the “% Inucl'n; nucleation assay; 100 mole %” value was found to be 18% and the “ΔLag; nucleation assay; 100 mole %” value is 1.2 ratio.
Taken in the same sequence, the figures for B2 were 11%, 15% and 1 ratio.
The like results for B3 were, in that order, 0%, 14% and 0.4 ratio.
For the molecule B4, the “% Iext'n” value was determined as 51%, the “% Inucl'n; nucleation assay; 33 mole %” value amounted to 72% and the “ΔLag; nucleation assay; 33 mole %” value is 1.8 ratio.
For B5, the “% Iext'n” value was found to be 0%, the “% Inucl'n; nucleation assay; 100 mole %” value was 25% and the “ΔLag; nucleation assay; 100 mole %” value amounted to 2.7 ratio.
The like results for B6 were, in that order, 37%, 45% and 0.8 ratio.
For the molecule B7, the “% Inucl'n; nucleation assay; 33 mole %” value was 5% and the “ΔLag; nucleation assay; 33 mole %” value stood at 1.1 ratio.
As for B8, the “% Iext'n” value worked out at 44%, the “% Inucl'n; nucleation assay; 100 mole %” value was determined as 68% and the “ΔLag; nucleation assay; 100 mole %” value stood at 1.4 ratio.
In the case of B9, the “% Inucl'n; nucleation assay; 100 mole %” value is -15% and the “ΔLag; nucleation assay; 100 mole %” value came out at 1.5 ratio.
With B10, the “% Iext'n” value turned out to be 66%, the “% Inucl'n; nucleation assay; 100 mole %” value was 47% and the “ΔLag; nucleation assay; 100 mole %” value amounted to 1.5 ratio.
On to B11, for which the “% Iext'n” value is 8%, the “% Inucl'n; nucleation assay; 100 mole %” value stood at 16% and the “ΔLag; nucleation assay; 100 mole %” value amounted to 0.9 ratio.
Taken in the same sequence, the figures for B12 were 16%, 55% and 1.4 ratio.
Taken in the same sequence, the figures for B13 were 80%, 76% and 2.5 ratio.
Take B14: the “% Iext'n” value came out at 10%, the “% Inucl'n; nucleation assay; 100 mole %” value turned out to be 76% and the “ΔLag; nucleation assay; 100 mole %” value is 2 ratio.
For B15, the “% Iext'n” value was 91%, the “% Inucl'n; nucleation assay; 100 mole %” value is -200% and the “ΔLag; nucleation assay; 100 mole %” value was determined as 1 ratio.
For B16, the “% Iext'n” value was determined as 39%, the “% Inucl'n; nucleation assay; 100 mole %” value was -9% and the “ΔLag; nucleation assay; 100 mole %” value turned out to be 1.3 ratio.
